The target of experiment [1] is DC-SIGN (Dendritic Cell-Specific Intercellular adhesion molecule 3-Grabbing Nonintegrin), human, expressed on HeLa-DC-SIGN cells (homo sapien) (UniProt Q9NNX6). Briefly: flow cytometry on HeLa-DC-SIGN cells. Background: In flow cytometry, cells or beads pass a laser one at a time.
For experiment [2], the target named is DC-SIGNR (DC-SIGN Related), human, expressed on HeLa-DC-SIGN-R cells (homo sapien) (UniProt Q9H2X3). Description: flow cytometry on HeLa-DC-SIGN-R cells.
Chain of DC-SIGNR (DC-SIGN Related), human, expressed on HeLa-DC-SIGN-R cells (homo sapien) (Q9H2X3 whole entry C368X): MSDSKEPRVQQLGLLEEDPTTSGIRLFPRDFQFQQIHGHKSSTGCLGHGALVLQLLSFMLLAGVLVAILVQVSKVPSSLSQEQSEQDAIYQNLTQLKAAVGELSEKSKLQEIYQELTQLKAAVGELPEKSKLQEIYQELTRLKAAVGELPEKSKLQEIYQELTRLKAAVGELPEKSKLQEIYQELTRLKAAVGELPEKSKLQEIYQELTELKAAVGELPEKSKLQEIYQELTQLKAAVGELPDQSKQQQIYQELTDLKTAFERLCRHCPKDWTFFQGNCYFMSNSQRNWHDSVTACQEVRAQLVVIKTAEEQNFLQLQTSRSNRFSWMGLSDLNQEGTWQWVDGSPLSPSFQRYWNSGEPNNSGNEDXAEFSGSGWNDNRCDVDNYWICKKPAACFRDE

Chain of DC-SIGN (Dendritic Cell-Specific Intercellular adhesion molecule 3-Grabbing Nonintegrin), human, expressed on HeLa-DC-SIGN cells (homo sapien) (Q9NNX6 whole entry): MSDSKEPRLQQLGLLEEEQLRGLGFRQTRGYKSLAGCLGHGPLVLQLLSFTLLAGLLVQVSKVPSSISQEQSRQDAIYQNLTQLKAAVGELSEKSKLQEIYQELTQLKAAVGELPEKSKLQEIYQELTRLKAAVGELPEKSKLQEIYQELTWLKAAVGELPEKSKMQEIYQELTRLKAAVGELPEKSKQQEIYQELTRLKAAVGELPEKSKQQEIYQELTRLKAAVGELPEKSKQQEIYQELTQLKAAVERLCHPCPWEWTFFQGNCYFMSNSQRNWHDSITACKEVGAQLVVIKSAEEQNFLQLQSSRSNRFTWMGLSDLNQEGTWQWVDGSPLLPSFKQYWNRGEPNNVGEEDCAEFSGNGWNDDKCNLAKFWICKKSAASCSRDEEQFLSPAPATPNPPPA

Take “120507 (507D), DC-SIGN-specific mouse IgG2b mAb (BD Pharmingen) (antibody)”: in experiment [1], the % Positive Cells worked out at 90.6% and the Mean fluorescence intensity is 81.1. In experiment [2], the % Positive Cells was 3.5% and the Mean fluorescence intensity amounted to 17.1.
The like results for “120604 (604L), DC-SIGN-R-specific mouse IgG2b mAb (BD Pharmingen) (antibody)” were, in that order, 1.1%, 14.2, 96% and 129.
“120612 (612X), mouse IgG2a mAb that recognizes both DC-SIGN and DC-SIGN-R (BD Pharmingen) (antibody)”: in experiment [1], the % Positive Cells is 67.3% and the Mean fluorescence intensity turned out to be 46.6. In experiment [2], this substance gave a % Positive Cells of 94.8% and a Mean fluorescence intensity of 102.
In experiment [1], Isotype control (antibody) registered a % Positive Cells of 1% and a Mean fluorescence intensity of 16.9. In experiment [2], this substance showed a % Positive Cells of 2.8% and a Mean fluorescence intensity of 13.7.
